Experimental findings from patent US20170131285A1 (INSERM INSTITUT NATIONAL DE LA SANTE ET DE LA RECHERCHE …, published 2017) are described below.

As usually defined, the Kd is the free concentration of one partner at which half of the binding sites on the other are occupied at equilibrium, for simple one-to-one binding.

The target of this experiment is T1, recombinant HSP70 (Heat Shock 70 kDa Protein) (human, UniProt P0DMV8 1-641).
T1 construct: also called HSP72; human HSP70
The experiment is described as follows: BLI (Octet Red), biotinylated A8 on streptavidin sensors, HSP70 in solution, 1:1 model global fit. The procedure: Protein-protein interaction experiments were conducted at 25° C. in PBS with an Octet Red instrument (Forte Bio, Menlo Park, Calif., USA) by biolayer interferometry (BLI). The ligand (cmHSP70 or A8 or TLR2) was biotinylated using EZ-Link NHS-PEG₄-biotin (Thermo Fisher Scientific, Bonn, Germany) according to the manufacturer's protocol and immobilized at a concentration of 20 μg/ml on streptavidin sensors (ForteBio, Menlo Park, Calif., USA). These functionalized biosensors were dipped into black Greiner 96-well microplates agitated at […] and filled with a solution of 200 μL containing the analyte. All sensorgrams were corrected for baseline drift by subtracting a control sensor exposed to running buffer only. Each KD was determined with a 1:1 stoichiometry model using a global fit with Rmax unlinked by sensor (Forte Bio, Data analysis software version 7.1.0.89).
Protein-protein interaction experiments were conducted with an Octet Red instrument (ForteBio, USA). The ligand (A8 or TLR2) was biotinylated using EZ-Link NHS-PEG₄-biotin (2 nM, 30 min, RT, Thermo Fisher Scientific, Germany) and immobilized on streptavidin sensors (96-well plate black, ForteBio, USA). […] Each KD was determined with a 1:1 stoichiometry model using a global fit with Rmax unlinked by sensor (ForteBio, Data analysis software version 7.1.0.89).

T1 sequence (P0DMV8 whole entry): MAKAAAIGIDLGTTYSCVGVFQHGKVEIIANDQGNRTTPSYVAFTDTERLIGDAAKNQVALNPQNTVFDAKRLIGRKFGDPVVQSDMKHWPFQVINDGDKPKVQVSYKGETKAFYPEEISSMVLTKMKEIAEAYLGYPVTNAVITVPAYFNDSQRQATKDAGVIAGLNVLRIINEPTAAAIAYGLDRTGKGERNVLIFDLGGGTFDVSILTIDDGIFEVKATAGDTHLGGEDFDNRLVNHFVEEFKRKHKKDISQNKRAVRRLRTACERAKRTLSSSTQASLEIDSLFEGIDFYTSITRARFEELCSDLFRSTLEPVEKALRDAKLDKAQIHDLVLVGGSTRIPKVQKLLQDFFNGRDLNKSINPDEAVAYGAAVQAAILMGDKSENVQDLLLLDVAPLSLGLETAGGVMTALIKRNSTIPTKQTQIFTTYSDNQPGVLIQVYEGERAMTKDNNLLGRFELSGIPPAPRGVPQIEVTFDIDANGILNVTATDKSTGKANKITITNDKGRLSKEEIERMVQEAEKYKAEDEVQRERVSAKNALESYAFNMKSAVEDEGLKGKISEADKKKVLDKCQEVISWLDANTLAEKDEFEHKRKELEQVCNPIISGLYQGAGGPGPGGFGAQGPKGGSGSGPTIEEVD

B1: peptide aptamer A8 (peptide)
peptide: SPWPRPTY
modifications: biotinylated with EZ-Link NHS-PEG4-biotin when immobilised on streptavidin sensors for BLI (site not stated); no modification stated for the solution assays
notes: also called A8 peptide aptamer; HSP70 peptide aptamer A8
In the case of B1, the Kd was 2.2 nM.
